In the supplement of paper PMC9732359 one finds protein stability index data, which are given here for 26 sequences.

± gives the uncertainty stated by the source.

This series is described as follows: protein stability index of a GFP-peptide fusion (yeast GPS) (PSI 1-4); higher = more stable; sorted into four equal gates, so the index is relative within each strain. In outline:
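Plasmids isolated from each sorting gate were PCR-amplified and Illumina-sequenced, and barcodes assigned the reads to strains. The gates, four of equal size, were set by GFP/Cherry fluorescence ratio on mid-log cultures in leucine-free medium. These cultures were yeast carrying a pooled library of tiled 17-residue yeast protein peptides fused downstream of GFP on a plasmid that also expresses Cherry. The protein stability index is the sum of every gate's read frequency times its gate number.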

As for YEADQRKLFPNWIKPSD [PRP8], the protein stability index is, setting by setting: (doa10∆) 2.99 ± 0.092; (pdr5∆) 2.86 ± 0.085; (san1∆) 2.67 ± 0.11; (ubr1∆) 2.96 ± 0.049.
For GKIDEAADILCELQVET [RPN5], in that order: 3.06 ± 0.12, 3.25 ± 0.15, 3.1 ± 0.061 and 3.46 ± 0.095.
Sequence HHYRPDMTTEEGLDLLK [PRE1] returned a protein stability index (doa10∆) of 3.32 ± 0.19, a protein stability index (pdr5∆) of 3.41 ± 0.17 and a protein stability index (ubr1∆) of 3.53 ± 0.093.
Consider NTNTENENRNTGAGVDV [SNF11], for which the protein stability index was determined as 2.9 ± 0.062 (doa10∆), 2.98 ± 0.045 (pdr5∆), 2.66 ± 0.044 (san1∆) and 2.88 ± 0.044 (ubr1∆).
For LNEEAVIFLSSLLTLVG [YJL039C/NUP192], in that order: 2.52 ± 0.076, 2.72 ± 0.086, 2.3 ± 0.11 and 2.9 ± 0.088.
On the same counts, the results for ARDLATMTYEEVAKRLV [FAS1] are 2.94 ± 0.11, 3.3 ± 0.082, 3.12 ± 0.13 and 3.02 ± 0.073.
For KFPPPTPLLENISISTS [BRR2], in that order: 1.83 ± 0.054, 1.84 ± 0.056, 1.63 ± 0.094 and 1.68 ± 0.045.
The sequence HCYPRQLCQITCQILES [RRP46] registered a protein stability index (doa10∆) of 1.8 ± 0.059, a protein stability index (pdr5∆) of 1.9 ± 0.058, a protein stability index (san1∆) of 1.72 ± 0.088 and a protein stability index (ubr1∆) of 2 ± 0.048.
VRYGSSLRRQVKKLEIQ [RPL43A] had a protein stability index (san1∆) of 2.55 ± 0.2.
In the case of PSTRCKLKLLRMERIKD [RPT2], the protein stability index reads like this: (doa10∆) 1.6 ± 0.045; (pdr5∆) 1.68 ± 0.056; (san1∆) 1.88 ± 0.089; (ubr1∆) 1.76 ± 0.064.
On the same counts, the results for TLQLYMVHREFLKLANG [RGR1] are 1.49 ± 0.047, 1.63 ± 0.05, 2.07 ± 0.058 and 2.28 ± 0.049.
For LVVLTDVVERLHKNFES [RGR1], in that order: 2.49 ± 0.093, 2.74 ± 0.073, 2.61 ± 0.12 and 2.96 ± 0.053.
For PADSTYGAYNTQIANAG [PRE4], the protein stability index was found to be 1.8 ± 0.097 (doa10∆), 2.03 ± 0.067 (pdr5∆), 2.08 ± 0.15 (san1∆) and 1.69 ± 0.049 (ubr1∆).
Regarding ELPLVITMPATNGKPDM [ARP7], the protein stability index reads like this: (doa10∆) 2.9 ± 0.088; (pdr5∆) 3.04 ± 0.074; (san1∆) 2.9 ± 0.065; (ubr1∆) 2.99 ± 0.059.
With KNGAQDLVLQILEDTAT [RRI2], the protein stability index was found to be 3.37 ± 0.08 (doa10∆), 3.3 ± 0.095 (pdr5∆), 3.33 ± 0.054 (san1∆) and 3.18 ± 0.072 (ubr1∆).
Take KKHGKTDYFLPKNYSLH [YJL039C/NUP192]: the protein stability index runs as follows: (doa10∆) 2.76 ± 0.057; (pdr5∆) 2.63 ± 0.069; (san1∆) 2.71 ± 0.049; (ubr1∆) 2.35 ± 0.049.
On to NNGSKDHGDGILLIDSE [RPN9], for which the protein stability index reads like this: (doa10∆) 3.37 ± 0.16; (pdr5∆) 3.19 ± 0.17; (san1∆) 3.38 ± 0.063; (ubr1∆) 3.41 ± 0.21.
In the case of SPELSLQRHLSLGIRPC [RRP43], the protein stability index is, setting by setting: (doa10∆) 2.54 ± 0.041; (pdr5∆) 2.65 ± 0.053; (san1∆) 2.73 ± 0.052; (ubr1∆) 3.06 ± 0.048.
For FIRSTNSWFDVTWRTFT [FAS1], the protein stability index by setting is: (doa10∆) 1.37 ± 0.12; (pdr5∆) 1.14 ± 0.13; (ubr1∆) 1.34 ± 0.15.
In the case of AILKLLENMPHPWEQAK [PRP8], the protein stability index (doa10∆) worked out at 2.76 ± 0.12, the protein stability index (pdr5∆) amounted to 2.05 ± 0.088, the protein stability index (san1∆) worked out at 1.93 ± 0.13 and the protein stability index (ubr1∆) was determined as 2.16 ± 0.057.
On the same counts, the results for PSVKRQKMAELEAARSE [PRP8] are 3.31 ± 0.1, 3.26 ± 0.075, 3.31 ± 0.074 and 3.28 ± 0.077.
ETGKLLSGLAQRKTNGA [BRN1]: where the note is “san1∆”, the protein stability index is 2.97 ± 0.11.
As to WTDPNLKSSLADVLSIL [RPN1], the protein stability index reads like this: (doa10∆) 2.94 ± 0.15; (pdr5∆) 2.98 ± 0.14; (san1∆) 2.94 ± 0.096; (ubr1∆) 2.65 ± 0.068.
For ELNVKHVKQCQETCDKL [SMC2], in that order: 3 ± 0.18, 3.47 ± 0.2, 3.09 ± 0.082 and 3.31 ± 0.051.
On the same counts, the results for AGSTGFSFGQNNNNTNT [YGR119C/NUP57] are 2.52 ± 0.068, 2.5 ± 0.072, 2.32 ± 0.092 and 2.32 ± 0.064.
Consider ENGDEDEDEDEDEDDDD [QCR6], for which the protein stability index is, setting by setting: (doa10∆) 2.01 ± 0.045; (pdr5∆) 1.74 ± 0.038; (san1∆) 1.92 ± 0.05; (ubr1∆) 2.46 ± 0.043.
